Assay results from article doi:10.1101/2023.03.20.533423 (bioRxiv, 2023).

Target: T1, M. tb ParB with C-terminal 6xHis-tag (M. tuberculosis, UniProt P9WIJ9 1-344)
T1 sequence: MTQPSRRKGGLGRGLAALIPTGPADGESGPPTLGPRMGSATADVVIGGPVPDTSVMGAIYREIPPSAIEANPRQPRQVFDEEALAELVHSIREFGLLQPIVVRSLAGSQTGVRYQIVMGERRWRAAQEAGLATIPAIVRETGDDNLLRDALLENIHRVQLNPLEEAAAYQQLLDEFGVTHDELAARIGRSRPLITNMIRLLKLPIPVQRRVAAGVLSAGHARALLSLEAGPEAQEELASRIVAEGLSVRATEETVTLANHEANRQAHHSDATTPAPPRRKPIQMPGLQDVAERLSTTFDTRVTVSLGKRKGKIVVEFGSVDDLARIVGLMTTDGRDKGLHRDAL
Experiment: pull-down

B1: GST-Rv1708 (natural protein)
chain: MPAGLPGQASVAVRLSCDVPPDARHHEPRPGMTDHPDTGNGIGLTGRPPRAIPDPAPRSSHGPAKVIAMCNQKGGVGKTTSTINLGAALGEYGRRVLLVDMDPQGALSAGLGVPHYELDKTIHNVLVEPRVSIDDVLIHSRVKNMDLVPSNIDLSAAEIQLVNEVGREQTLARALYPVLDRYDYVLIDCQPSLGLLTVNGLACTDGVIIPTECEFFSLRGLALLTDTVDKVRDRLNPKLDISGILITRYDPRTVNSREVMARVVERFGDLVFDTVITRTVRFPETSVAGEPITTWAPKSAGALAYRALARELIDRFGM
Q: Does B1 bind?
A: binds
